These results are taken from article PMC5574378.

Experiment [1] deals with arsenite oxidase (Aio) from Rhizobium sp. str. NT-26, wild type (Rhizobium sp. str. NT-26). In words: ITC; 750 μM reduced cytochrome c in the syringe injected (1.5 or 2 μL) into 75 μM reduced Aio in the cell; 50 mM Tris-HCl (pH 8), no NaCl, 25 °C; 1:1 binding fit; three enzyme preparations. On the technique in general: ITC needs no label: the signal is the heat of the interaction.

In experiment [2] the target is arsenite oxidase (Aio) from Rhizobium sp. str. NT-26 with the AioB-F108A substitution (Rhizobium sp. str. NT-26). The description is as above.
Experiment [3] concerns the target arsenite oxidase (Aio) from Rhizobium sp. str. NT-26, wild type (Rhizobium sp. str. NT-26).

The Kd is the free concentration of one partner at which half of the binding sites on the other are occupied at equilibrium, for simple one-to-one binding. A high value points to a looser complex. One may read the stoichiometry N as the number of molecules, sites or subunits per partner or assembly.

Consider “horse heart cytochrome c (from UniProt P00004 1-105) (natural protein)”, for which, in experiment [1], the Kd was found to be 2.3 µM, the dH (kcal mol^(− 1)) came to 6 and the stoichiometry N worked out at 0.85. In experiment [2], this substance gave a Kd of 7.8 µM, a dH (kcal mol^(− 1)) of 3 and a stoichiometry N of 0.82. Also, the KM for cytochrome c, steady-state kinetics of Aio with 2.5 mM arsenite and 0.5-10 μM cytochrome c in experiment [3] was 1 µM.
